The values below come from paper doi:10.1101/2024.06.12.598358 (bioRxiv, 2024).

The target in test [1] is 7xHis-SUMO-MtbClpC1 (M. tuberculosis) (UniProt P9WPC9). Description: MST.
The target of test [2] is Tyr-LFVQLASK peptide conjugated to CSGSK^TAMRA. Put plainly: fluorescence polarisation.
In test [3] the target is Phe-LFVQLASK peptide conjugated to CSGSK^TAMRA. Description: fluorescence polarisation.
Test [4] addresses Leu-LFVQLASK peptide conjugated to CSGSK^TAMRA. Put plainly: fluorescence polarisation.
For test [5], the target named is Trp-LFVQLASK peptide conjugated to CSGSK^TAMRA. Description: fluorescence polarisation.
Test [6] has as its target 7xHis-SUMO-MtbClpC1 (M. tuberculosis) (UniProt P9WPC9). Description: MST. This is another data set of the same source.
The target of the next test is T1, E. coli ClpS (E. coli, UniProt P0A8Q6 1-106).
T1 sequence: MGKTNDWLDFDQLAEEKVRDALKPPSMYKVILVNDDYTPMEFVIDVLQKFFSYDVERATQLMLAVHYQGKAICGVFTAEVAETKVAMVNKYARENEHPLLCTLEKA
Put plainly: fluorescence polarisation.

Like-named read-outs stand apart in the source and are kept apart here. Side chains are listed from the residue outwards. Ends that are not written are not given here. maleimide = maleimide function on the C-terminal Lys

Chain of 7xHis-SUMO-MtbClpC1 (M. tuberculosis) (P9WPC9 whole entry): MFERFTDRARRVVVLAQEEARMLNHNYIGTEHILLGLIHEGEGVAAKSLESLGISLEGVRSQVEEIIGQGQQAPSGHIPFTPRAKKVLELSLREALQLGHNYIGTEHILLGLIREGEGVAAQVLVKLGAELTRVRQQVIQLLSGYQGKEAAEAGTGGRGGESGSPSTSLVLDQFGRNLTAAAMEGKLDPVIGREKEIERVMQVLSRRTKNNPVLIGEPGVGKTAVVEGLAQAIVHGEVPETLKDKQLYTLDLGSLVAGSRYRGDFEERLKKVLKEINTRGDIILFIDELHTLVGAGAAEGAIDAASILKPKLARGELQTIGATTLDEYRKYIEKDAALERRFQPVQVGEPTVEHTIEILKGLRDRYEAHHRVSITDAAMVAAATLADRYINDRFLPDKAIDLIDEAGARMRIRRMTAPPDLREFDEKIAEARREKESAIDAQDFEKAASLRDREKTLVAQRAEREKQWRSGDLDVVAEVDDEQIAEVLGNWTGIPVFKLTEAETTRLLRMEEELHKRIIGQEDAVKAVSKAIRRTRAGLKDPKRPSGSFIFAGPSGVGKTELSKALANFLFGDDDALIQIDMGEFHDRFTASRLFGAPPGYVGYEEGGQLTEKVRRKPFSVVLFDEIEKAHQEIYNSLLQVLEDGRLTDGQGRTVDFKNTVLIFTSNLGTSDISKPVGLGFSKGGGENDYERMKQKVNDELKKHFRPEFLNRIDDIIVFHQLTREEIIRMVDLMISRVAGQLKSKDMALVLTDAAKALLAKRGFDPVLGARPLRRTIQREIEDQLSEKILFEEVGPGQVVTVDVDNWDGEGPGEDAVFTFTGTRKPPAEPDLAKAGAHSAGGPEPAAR

As for M. smegmatis ClpS (natural protein), the Kd in test [1] came to 3.5 µM; in test [2] it was 8.8 µM; in test [3] it was 6.5 µM; in test [4], 42 µM; in test [5], 11 µM; in test [6], 100 µM.

As for LLFVQLASK([maleimide-CSGSK(TAMRA)]) (not fully specified) [Leu-LFVQLASK peptide conjugated to CSGSK^TAMRA], the binding result with E. coli ClpS was “binds”.

Consider WLFVQLASK([maleimide-CSGSK(TAMRA)]) (not fully specified) [Trp-LFVQLASK peptide conjugated to CSGSK^TAMRA], for which the binding result with E. coli ClpS was “binds”.

For FLFVQLASK([maleimide-CSGSK(TAMRA)]) (not fully specified) [Phe-LFVQLASK peptide conjugated to CSGSK^TAMRA], in the test with E. coli ClpS, the binding result is “binds”.

As for YLFVQLASK([maleimide-CSGSK(TAMRA)]) (not fully specified) [Tyr-LFVQLASK peptide conjugated to CSGSK^TAMRA], the binding result with E. coli ClpS is listed as “binds”.
